Experimental data from PMC6778148 (Nature Communications, 2019).
Values belong to the binder of their own block, whether it stands above or below them. Primed or numbered codes have the meaning given here. Ends that are not written are not given here. FITC′ = fluorescein isothiocyanate label; TTDS = PEG linker

T1: fluorescein-labelled monovalent stargazin peptide
T1 chain: {FITC′-TTDS}-DSLHANTANRRTTPV

B1: biotinylated Xph20 [S63K]-(GGS)12-ETWV, from pbIG (designed binder)
chain: SSVSSVPTKLEVVAATPTSLLISWDAVAKNVKVGYYRITYGETGGNSPVQEFTVPGSSSTATISGLKPGVDYTITVYANGVLSKMVLPISINYRTLEGGSGGSGGSGGSGGSGGSGGSGGSGGSGGSGGSGGSGTETWV
modifications: biotin on the AviTag (BirA)
notes: also called Xph20-ETWV; not shown: AviTag (biotin acceptor peptide), N-terminal, kept
B2: Xph20 [S63K]-(GGS)12-ETWV with N-terminal His10, from pET-IG (designed binder)
chain: B1 chain
notes: also called Xph20-ETWV; pIG-Xph20-ETWV; not shown: His10, N-terminal, kept
B3: biotinylated Xph15 [S63K]-(GGS)12-ETWV, from pbIG (designed binder)
chain: SSVSSVPTKLEVVAATPTSLLISWDAGPRNVSYYRITYGETGGNSPVQEFTVPGSSSTATISGLKPGVDYTITVYASGHVSTLMTPISINYRTLEGGSGGSGGSGGSGGSGGSGGSGGSGGSGGSGGSGGSGTETWV
modifications: biotin on the AviTag (BirA)
B4: PSD-95 PDZ domain 2 (PSD-95-2), as used for fluorescence polarisation (domain or fragment, rat)
chain: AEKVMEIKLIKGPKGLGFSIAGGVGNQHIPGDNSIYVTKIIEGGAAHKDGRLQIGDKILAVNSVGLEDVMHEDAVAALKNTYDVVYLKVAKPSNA
notes: also called PSD-95 second PDZ domain; source: E. coli, purified
B5: SAP102 tandem PDZ domains 1 and 2 (SAP102-12), from pET-NO (domain or fragment, rat)
chain: FKYEEIVLERGNSGLGFSIAGGIDNPHVPDDPGIFITKIIPGGAAAMDGRLGVNDCVLRVNEVDVSEVVHSRAVEALKEAGPVVRLVVRRRQPPPETIMEVNLLKGPKGLGFSIAGGIGNQHIPGDNSIYITKIIEGGAAQKDGRLQIGDRLLAVNNTNLQDVRHEEAVASLKNTSDMVYLKVAKPGSL
notes: first two PDZ domains of rat SAP102, residues 145-333; also called NO-SAP102-12
B6: biotinylated Xph18 [S63K]-(GGS)12-ETWV, from pbIG (designed binder)
chain: SSVSSVPTKLEVVAATPTSLLISWDAHSRMAWVNYYRITYGETGGNSPVQEFTVPGSSSTATISGLKPGVDYTITVYANGGGFRRGMAPISINYRTLEGGSGGSGGSGGSGGSGGSGGSGGSGGSGGSGGSGGSGTETWV
modifications: biotin on the AviTag (BirA)

Key:
Conditions in all cases: both partners purified
[1] = target: T2, PSD-95 tandem PDZ domains 1 and 2 (PSD-95-12), from pET-NO (rat); test: SPR; Biacore T200, single cycle kinetics; biotinylated Xph-motif fusion captured on a CAP chip (ligand), tandem PDZ domains as analyte; 25 °C; PBS with 500 mM NaCl pH 7.4, 0.1% Tween 20; global 1:1 fit (kinetics analysis)
T2 construct: first two PDZ domains of rat PSD-95, residues 61-249; also called NO-PSD-95-12; not shown: His8, N-terminal, kept

[2] = target: T3, PSD-93 tandem PDZ domains 1 and 2 (PSD-93-12), from pET-NO (rat); test: SPR; Biacore T200, single cycle kinetics at higher analyte concentrations (up to 35 µM); biotinylated Xph15/18/20-ETWV captured (ligand), tandem PDZ domains as analyte; steady state analysis, one site binding (hyperbola)
T3 construct: first two PDZ domains of rat PSD-93, residues 93-282; also called NO-PSD-93-12
T3 sequence (chain, as listed by the source): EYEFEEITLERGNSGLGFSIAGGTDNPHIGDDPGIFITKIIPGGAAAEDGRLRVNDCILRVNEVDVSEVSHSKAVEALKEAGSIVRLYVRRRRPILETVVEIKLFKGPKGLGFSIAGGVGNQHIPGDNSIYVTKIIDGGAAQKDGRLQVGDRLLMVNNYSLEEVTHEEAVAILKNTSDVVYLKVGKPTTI

[3] = target: T4, SAP97 tandem PDZ domains 1 and 2 (SAP97-12), from pET-NO (rat); test: pull-down; competitive pull-down: streptavidin beads with 120 pmol biotinylated [Stg15]2, 180 pmol tandem PDZ domains, then 0-50 (100) equivalents of Xph20-ETWV or Xph0-ETWV; PBS with 500 mM NaCl pH 7.4, Tween 20, 0.5% BSA; SDS-PAGE, colloidal blue, densitometry; One site - Fit Ki
T4 construct: first two PDZ domains of rat SAP97, residues 220-408; also called NO-SAP97-12; not shown: His8, N-terminal, kept

[4] = target: T3, PSD-93 tandem PDZ domains 1 and 2 …; test: as above
[5] = target: T2, PSD-95 tandem PDZ domains 1 and 2 …; test: as above
[6] = target: B5; test: as above
[7] = target: T1, fluorescein-labelled monovalent …; test: fluorescence polarisation; direct titration: 50 nM fluorescein-labelled stargazin ligand (divalent or monovalent) against increasing concentrations of PDZ domains; apparent KD
[8] = target: B4; test: fluorescence polarisation; competitive titration: ETWV or stargazin monovalent peptide against the complex of 50 nM FITC monovalent stargazin peptide with 24 µM PSD-95-2
[9] = target: B4; test: as above
[10] = target: B1; test: SPR; Biacore T200, single cycle kinetics at higher analyte concentrations (up to 35 µM); biotinylated Xph15/18/20-ETWV captured (ligand), tandem PDZ domains as analyte; steady state analysis, one site binding (hyperbola)
[11] = target: B6; test: as above
[12] = target: B3; test: as above

Binder: B1
- Kd [1]: 0.089 nM
- koff [1]: 0.00052 s⁻¹
- kon [1]: 8.7e+06 M⁻¹ s⁻¹
- Kd [2]: 7.5 µM

Binder: B2
- Ki [3]: 0.901 µM
- Ki [4]: 0.261 µM
- Ki [5]: 0.0365 µM
- Ki [6]: 1.44 µM

Binder: B3
- Kd [2]: 8.4 µM

Binder: B4
- Kd [7]: 16 µM

- Ki [8]: 8.8 µM
- Ki [9]: 8.6 µM
Binder: Ac-DSLHANTANRRTTPV [acetylated monovalent stargazin peptide]

Binder: B5
- Kd [10]: 9.9 µM
- Kd [11]: 4.2 µM
- Kd [12]: 9.8 µM

Binder: B6
- Kd [2]: 3.2 µM
